# Positions count from the first letter of the chain named.
# B1: TRAF7, Q6Q0C0 (peptide)
# chain: VDSTVKVWTC
# B2: BAZ1A, Q9NRL2 (peptide)
# chain: TPPAAKKSRI
# B3: CTNNA1, P35221 (peptide)
# chain: LSEFKAMDSI
# B4: BPIFA2, Q96DR5 (peptide)
# chain: QHKTQLQTLI
# Legend:
# Assay in all cases: holdup assay
# Set-up in all cases: key: below the threshold = too weak to quantify, mostly under pKd 3.1 to 4
# Details in all cases: plain residues with an end cap or a label only (N-terminal biotin on a linker: ado-ado)
# AHNAK1, Q09666 = biological target: AHNAK1, Q09666
# Chain of AHNAK1, Q09666 (Q09666 4-100): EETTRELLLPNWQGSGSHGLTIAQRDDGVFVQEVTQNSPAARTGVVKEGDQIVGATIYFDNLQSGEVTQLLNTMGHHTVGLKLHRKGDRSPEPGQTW
# ARHGAP21, Q5T5U3 = biological target: T1, ARHGAP21, Q5T5U3
# T1 sequence (Q5T5U3 45-169, limits assumed, looked up): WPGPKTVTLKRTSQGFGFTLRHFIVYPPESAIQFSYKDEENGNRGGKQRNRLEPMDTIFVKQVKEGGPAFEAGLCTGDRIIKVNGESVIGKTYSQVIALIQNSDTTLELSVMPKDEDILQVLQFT
# DLG3_1, Q92796 = biological target: T2, DLG3_1, Q92796
# T2 sequence (Q92796 125-227, limits assumed, looked up): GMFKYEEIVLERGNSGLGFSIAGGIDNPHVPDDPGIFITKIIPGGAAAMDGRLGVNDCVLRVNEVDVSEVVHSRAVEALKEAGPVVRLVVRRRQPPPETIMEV
# DLG5_1, Q8TDM6 = biological target: DLG5_1, Q8TDM6
# Chain of DLG5_1, Q8TDM6 (Q8TDM6 617-713): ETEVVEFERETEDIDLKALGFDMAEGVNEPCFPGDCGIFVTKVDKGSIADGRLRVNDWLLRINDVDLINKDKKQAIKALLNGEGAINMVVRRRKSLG
# FRMPD2_1, Q68DX3 = biological target: FRMPD2_1, Q68DX3
# Chain of FRMPD2_1, Q68DX3 (Q68DX3 770-861): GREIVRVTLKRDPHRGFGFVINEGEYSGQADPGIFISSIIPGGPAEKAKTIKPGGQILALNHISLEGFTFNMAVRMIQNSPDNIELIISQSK
# FRMPD2_2, Q68DX3 = biological target: FRMPD2_2, Q68DX3
# Chain of FRMPD2_2, Q68DX3 (Q68DX3 944-1038): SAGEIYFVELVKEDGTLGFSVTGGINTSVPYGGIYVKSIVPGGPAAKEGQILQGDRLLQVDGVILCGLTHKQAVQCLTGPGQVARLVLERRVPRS
# GRASP, Q7Z6J2 = biological target: GRASP, Q7Z6J2
# Chain of GRASP, Q7Z6J2 (Q7Z6J2 96-193): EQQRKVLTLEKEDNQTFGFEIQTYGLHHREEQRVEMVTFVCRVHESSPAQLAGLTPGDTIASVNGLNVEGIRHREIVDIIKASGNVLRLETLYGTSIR
# GRID2IP_2, A4D2P6 = biological target: GRID2IP_2, A4D2P6
# Chain of GRID2IP_2, A4D2P6 (A4D2P6 272-370): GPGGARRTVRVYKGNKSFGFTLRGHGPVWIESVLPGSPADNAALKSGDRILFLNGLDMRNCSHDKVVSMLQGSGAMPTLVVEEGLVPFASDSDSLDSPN
# GRIP1_4, Q9Y3R0 = biological target: T3, GRIP1_4, Q9Y3R0
# T3 sequence (Q9Y3R0 467-571, limits assumed, looked up): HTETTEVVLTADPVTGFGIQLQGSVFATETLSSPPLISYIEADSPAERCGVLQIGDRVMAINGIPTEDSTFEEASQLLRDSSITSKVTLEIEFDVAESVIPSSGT
# Inadl_6, Q8NI35 = biological target: Inadl_6, Q8NI35
# Chain of Inadl_6, Q8NI35 (Q8NI35 1058-1167): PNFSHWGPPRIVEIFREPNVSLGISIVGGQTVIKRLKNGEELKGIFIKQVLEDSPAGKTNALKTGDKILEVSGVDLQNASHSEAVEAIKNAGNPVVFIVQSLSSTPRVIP
# LAP2, Q96RT1 = biological target: LAP2, Q96RT1
# Chain of LAP2, Q96RT1 (Q96RT1 other isoform, or with tags, fused parts or gaps): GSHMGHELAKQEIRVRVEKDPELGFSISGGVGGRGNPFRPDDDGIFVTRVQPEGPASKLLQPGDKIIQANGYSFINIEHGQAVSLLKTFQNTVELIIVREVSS
# LIN7B, Q9HAP6 = biological target: T4, LIN7B, Q9HAP6
# T4 sequence (Q9HAP6 88-185, limits assumed, looked up): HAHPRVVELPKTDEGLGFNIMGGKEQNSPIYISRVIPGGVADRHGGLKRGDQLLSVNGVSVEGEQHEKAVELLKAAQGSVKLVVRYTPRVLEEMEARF
# LIN7C, Q9NUP9 = biological target: T5, LIN7C, Q9NUP9
# T5 sequence (Q9NUP9 88-185, limits assumed, looked up): T4 sequence (Q9HAP6 88-185, limits assumed, looked up) with A2S, D13E, V35I, V40I, Q65H, S79K, R89K, A96S
# LNX1_2, Q8TBB1 = biological target: LNX1_2, Q8TBB1
# Chain of LNX1_2, Q8TBB1 (Q8TBB1 371-470): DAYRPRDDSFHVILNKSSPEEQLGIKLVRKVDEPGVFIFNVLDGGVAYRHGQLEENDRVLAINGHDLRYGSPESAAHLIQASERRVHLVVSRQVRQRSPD
# MAGI1_2, Q96QZ7 = biological target: MAGI1_2, Q96QZ7
# Chain of MAGI1_2, Q96QZ7 (Q96QZ7 456-580): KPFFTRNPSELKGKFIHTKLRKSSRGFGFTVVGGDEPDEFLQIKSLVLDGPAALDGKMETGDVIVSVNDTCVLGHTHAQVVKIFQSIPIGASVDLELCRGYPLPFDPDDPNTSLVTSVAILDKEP
# MPDZ_10, O75970 = biological target: T6, MPDZ_10, O75970
# T6 sequence (O75970 1624-1722, limits assumed, looked up): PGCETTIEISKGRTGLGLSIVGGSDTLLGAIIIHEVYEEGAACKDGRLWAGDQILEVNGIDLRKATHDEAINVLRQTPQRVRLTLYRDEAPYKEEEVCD
# MPDZ_5, O75970 = biological target: T7, MPDZ_5, O75970
# T7 sequence (O75970 695-796, limits assumed, looked up): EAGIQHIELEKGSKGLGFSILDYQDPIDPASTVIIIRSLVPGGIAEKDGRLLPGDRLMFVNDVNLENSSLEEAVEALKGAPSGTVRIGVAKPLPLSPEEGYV
# MPP6, Q9NZW5 = biological target: T8, MPP6, Q9NZW5
# T8 sequence (Q9NZW5 125-219, limits assumed, looked up): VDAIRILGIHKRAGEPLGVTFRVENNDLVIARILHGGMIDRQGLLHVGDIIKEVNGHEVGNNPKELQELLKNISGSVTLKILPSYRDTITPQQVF
# PDZD2_2, O15018 = biological target: T9, PDZD2_2, O15018
# T9 sequence (O15018 329-429, limits assumed, looked up): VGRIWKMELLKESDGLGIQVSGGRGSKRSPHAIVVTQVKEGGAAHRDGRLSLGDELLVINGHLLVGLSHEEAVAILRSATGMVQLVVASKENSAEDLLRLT
# PICK1, Q9NRD5 = biological target: PICK1, Q9NRD5
# Chain of PICK1, Q9NRD5 (Q9NRD5 17-115): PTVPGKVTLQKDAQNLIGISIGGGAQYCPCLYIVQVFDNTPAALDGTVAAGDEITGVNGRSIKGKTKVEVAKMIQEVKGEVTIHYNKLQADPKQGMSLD
# SCRIB_3, Q14160 = biological target: SCRIB_3, Q14160
# Chain of SCRIB_3, Q14160 (Q14160 999-1103): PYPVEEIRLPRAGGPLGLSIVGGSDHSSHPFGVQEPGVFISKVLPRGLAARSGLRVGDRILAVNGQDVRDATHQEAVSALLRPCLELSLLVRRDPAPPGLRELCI
# SNTB1, Q13884 = biological target: T10, SNTB1, Q13884
# T10 sequence (Q13884 107-205, limits assumed, looked up): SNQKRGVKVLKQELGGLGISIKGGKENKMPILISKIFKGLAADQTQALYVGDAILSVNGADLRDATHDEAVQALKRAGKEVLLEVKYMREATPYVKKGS
# SNX27, Q96L92 = biological target: SNX27, Q96L92
# TIAM2, Q8IVF5 = biological target: T11, TIAM2, Q8IVF5
# T11 sequence (Q8IVF5 885-986, limits assumed, looked up): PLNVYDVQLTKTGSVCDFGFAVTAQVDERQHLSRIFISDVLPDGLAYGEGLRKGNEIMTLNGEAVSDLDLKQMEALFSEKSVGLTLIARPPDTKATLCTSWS
# TX1BP3, O14907 = biological target: T12, TX1BP3, O14907
# T12 sequence (O14907 10-122, limits assumed, looked up): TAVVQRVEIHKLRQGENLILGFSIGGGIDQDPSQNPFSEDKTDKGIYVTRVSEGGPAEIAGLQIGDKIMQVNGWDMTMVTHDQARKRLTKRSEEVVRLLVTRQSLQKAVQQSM
Binder,"pKd (AHNAK1, Q09666)","pKd (ARHGAP21, Q5T5U3)","pKd (DLG3_1, Q92796)","pKd (DLG5_1, Q8TDM6)","pKd (FRMPD2_1, Q68DX3)","pKd (FRMPD2_2, Q68DX3)","pKd (GRASP, Q7Z6J2)","pKd (GRID2IP_2, A4D2P6)","pKd (GRIP1_4, Q9Y3R0)","pKd (Inadl_6, Q8NI35)","pKd (LAP2, Q96RT1)","pKd (LIN7B, Q9HAP6)","pKd (LIN7C, Q9NUP9)","pKd (LNX1_2, Q8TBB1)","pKd (MAGI1_2, Q96QZ7)","pKd (MPDZ_10, O75970)","pKd (MPDZ_5, O75970)","pKd (MPP6, Q9NZW5)","pKd (PDZD2_2, O15018)","pKd (PICK1, Q9NRD5)",also measured
B1,below the threshold,4.36,below the threshold,3.56,4.45,below the threshold,3.85,below the threshold,below the threshold,below the threshold,below the threshold,3.64,below the threshold,5.3,below the threshold,below the threshold,below the threshold,below the threshold,4.27,below the threshold,"pKd (SCRIB_3, Q14160): below the threshold; pKd (SNTB1, Q13884): below the threshold; pKd (SNX27, Q96L92): below the threshold; pKd (TIAM2, Q8IVF5): 4.22; pKd (TX1BP3, O14907): below the threshold"
B2,below the threshold,3.58,3.53,3.57,below the threshold,below the threshold,below the threshold,4.42,below the threshold,below the threshold,below the threshold,3.62,below the threshold,below the threshold,below the threshold,3.69,below the threshold,below the threshold,3.97,below the threshold,"pKd (SCRIB_3, Q14160): below the threshold; pKd (SNTB1, Q13884): below the threshold; pKd (SNX27, Q96L92): below the threshold; pKd (TIAM2, Q8IVF5): below the threshold; pKd (TX1BP3, O14907): below the threshold"
B3,below the threshold,4.01,below the threshold,below the threshold,below the threshold,below the threshold,below the threshold,below the threshold,below the threshold,below the threshold,below the threshold,3.74,below the threshold,below the threshold,below the threshold,below the threshold,below the threshold,below the threshold,below the threshold,4.08,"pKd (SCRIB_3, Q14160): below the threshold; pKd (SNTB1, Q13884): below the threshold; pKd (SNX27, Q96L92): below the threshold; pKd (TIAM2, Q8IVF5): 3.48; pKd (TX1BP3, O14907): 3.47"
B4,below the threshold,4.01,3.68,3.48,below the threshold,below the threshold,4.04,3.93,below the threshold,3.56,below the threshold,below the threshold,below the threshold,below the threshold,4.32,below the threshold,below the threshold,below the threshold,4.25,below the threshold,"pKd (SCRIB_3, Q14160): 4.2; pKd (SNTB1, Q13884): 3.49; pKd (SNX27, Q96L92): 3.83; pKd (TIAM2, Q8IVF5): below the threshold; pKd (TX1BP3, O14907): 3.79"

# From article PMC9482650, “Quantitative fragmentomics allow affinity mapping of interactomes” (Nature Communications, 2022)
